Source: patent publication US11819552B2, “Antibody-drug conjugates targeting uPARAP” (RIGSHOSPITALET, priority 2016, dated 2023)
Entries after “also recorded” stand apart in the source; their conditions may differ.

How the values were obtained:
KNS42 cells [1] = assay: In vitro cytotoxicity of ADCs, cell viability assay (MTS); type: cell-based; conditions: 72 hours, 4-fold dilutions from 10 μg/mL ADC, vs aTNP-vc-MMAE
Description: (§1) Cells tested were seeded at low density (20-25% confluence, generally 5-10×10^3 cells per well) in a 96 well plate in 90 μL of medium, and incubated overnight. […] Cells were incubated for 72 hours, before 20 μL of CellTiter 96 AQueous One Solution Cell Proliferation Assay (MTS, Promega) was added, and incubated for an appropriate time for formation of color (usually 1 hour). The plates were then read at 490 nm, with background subtraction at 630 nm, using a plate reader.

THP-1 cells [2] = assay: as above; type: cell-based; conditions: 72 hours, 4-fold dilutions from 10 μg/mL ADC, vs aTNP-vc-MMAE
Description: as §1

U937 cells [3] = assay: as above; type: cell-based; conditions: 72 hours, 4-fold dilutions from 10 μg/mL ADC (mAb component), vs aTNP-vc-MMAE
Description: as §1

[4] = test system: CHO-K1 (receptor-negative cell line); assay: as above; type: cell-based; conditions: 72 hours, 4-fold dilutions from 10 μg/mL ADC
Description: as §1

HT1080 cells [5] = assay: as above; type: cell-based; conditions: 72 hours, 4-fold dilutions from 10 μg/mL ADC, vs aTNP-vc-MMAE
Description: as §1

[6] = molecular target: T1, soluble truncated uPARAP protein containing the first 3 N-terminal domains of human uPARAP (Homo sapiens, UniProt Q9UBG0); assay: ELISA analysis of uPARAP-binding of mAbs; conditions: after reduction step of conjugation, or in ADC form
T1 construct: a soluble truncated uPARAP protein containing the first 3 N-terminal domains of human uPARAP
T1 sequence (Q9UBG0 31-365): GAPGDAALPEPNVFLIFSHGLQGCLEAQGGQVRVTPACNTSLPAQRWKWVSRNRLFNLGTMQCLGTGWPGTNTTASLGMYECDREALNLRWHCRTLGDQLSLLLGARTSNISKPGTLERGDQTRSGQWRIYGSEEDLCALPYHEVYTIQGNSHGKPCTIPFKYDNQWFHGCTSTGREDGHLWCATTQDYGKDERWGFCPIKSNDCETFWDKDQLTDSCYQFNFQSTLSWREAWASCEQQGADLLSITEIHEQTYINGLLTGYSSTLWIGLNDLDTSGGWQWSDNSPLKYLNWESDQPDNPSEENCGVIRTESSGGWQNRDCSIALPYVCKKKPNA
Description: Untreated mAbs (2h9 or aTNP), same mAbs subjected to the reduction procedure of conjugation (see above), or ADCs 2h9-vc-MMAE or aTNP-vc-MMAE, were then employed as a primary antibody, followed by a HRP-conjugated rabbit anti-mouse Ig secondary antibody. Finally an o-phenylenediamine dihydrochloride-containing substrate solution was added, and the color reaction was stopped by adding 1M H2SO4. Plates were read at 492 nm using a plate reader.

KNS42 cells [7] = assay: Cell cycle distribution analysis; type: cell-based; conditions: 3-day incubation, 1 μg/mL ADC
Description: (§2) Cell cycle analysis was performed using a Nucleocounter NC-3000 system (ChemoMetec Denmark), using the manufacturers standard protocol for analyzing the cell cycle distribution of a population of cells, based on the DNA content of each cell. The percentage of cells in Sub-G1, G1, S, or G2/M-phases of the cell cycle was established from histogram analysis using the NucleoView NC-3000 software.

THP-1 cells [8] = assay: Cell cycle distribution analysis; type: cell-based; conditions: 3-day incubation, 1 μg/mL ADC
Description: as §2

U937 cells [9] = assay: Cell cycle distribution analysis; type: cell-based; conditions: 3-day incubation, 1 μg/mL ADC
Description: as §2

HT1080 cells [10] = assay: Cell cycle distribution analysis; type: cell-based; conditions: 3-day incubation, 1 μg/mL ADC
Description: as §2

[11] = test system: human glioblastoma explant cells; assay: In vitro cell viability assay on glioblastoma explant cells; conditions: as FIG. 5 assay; vs aTNP-based control ADCs
Description: as §1
The ADCs 2h9-vc-MMAE and 2h9-vc-MMAF were tested by in vitro cell viability assays, performed as described in Example 1, for their capacity to specifically kill human glioblastoma explant cells. Glioblastoma explant cells are e.g. described in Staberg et al., 2017, Cell Oncol. 40: 21-32.

U937 xenograft tumour [12] = assay: Subcutaneous uPARAP-positive U937 xenograft tumour model, treatment by intravenous injection; type: in vivo, CB17 SCID mice
Description: (§3) All animal experiments were performed under legal approval from The Danish Veterinary and Food Administration. All reagents and cell lines used for animal experiments were tested negative for the presence of murine viruses, bacteria, mycoplasma and fungi. Animals received standard of care, and were sacrificed upon any of the following signs: loss of more than 10% of body weight, visible distress or illness, compromised food—or water intake or defecation, signs of severe inflammation in the vicinity of tumours, or tumour growth which exceeded a volume of 1000 mm^3 or compromised the free movement of the animals. Tumour growth was measured using electronic calipers, and tumour volumes were calculated using the formula Volume=(LxW^2)/2, with L being the longest dimension of the tumour, and W being the width in the perpendicular dimension.
(§4) For tumour establishment, mice were shaved at the flank, and received a subcutaneous injection of 1×10^6 U937 cells, and then closely monitored in order to observe the development of solid tumours. […] All treatments were given as a total of 3 intravenous doses of 5 mg/kg mAb component in the tail veins of the mice, at 4 days intervals. During treatment, the tumours were evaluated every two days, until reaching a point of sacrifice. Mice which fully lost any tumour burden were checked two times a week for a period of 3 months after ending treatment.

[13] = molecular target: T2, recombinant human (rh) Cathepsin B (Homo sapiens, UniProt P07858); assay: Cathepsin B linker cleavage assay (reducing SDS-PAGE); type: biochemical; conditions: incubation with activated rh cathepsin B, 37° C. overnight
T2 construct: purchased
Description: Reducing SDS-PAGE was performed by running a 4-12% NuPAGE Bis-Tris SDS-PAGE gel, loading 5 μg of total protein per lane, reduced by boiling for 3 minutes in sample buffer in the presence of 40 mM DTT. The gels were stained using a standard 0.1% coomassie blue stain. For cathepsin B linker cleavage assay, samples were treated with recombinant human (rh) Cathepsin B according to manufacturer's instructions, using 100 ng of activated rhCathepsin B to 20 μg ADC (mAb component), in a 25 mM MES, pH 5.0 buffer, and incubation at 37° C. overnight.

U937 xenograft tumour [14] = assay: Subcutaneous uPARAP-positive U937 xenograft tumour model, treatment by s.c. injection; type: in vivo, CB17 SCID mice
Description: as §3
as §4, with “4 subcutaneous” for “3 intravenous”, “3” for “5”, “tumour area,” for “tail veins of the mice,”, “intervals. Injections were performed under brief isoflurane anesthesia to avoid risks for the animal handler.” for “intervals.”

[15] = s.c., 3 mg/kg, 4 doses, of the 10 mice treated

B1: 2h9-vc-MMAE: uPARAP-directed ADC: mAb 2h9 conjugated to MC-VC-PAB-MMAE (Vedotin) linker-toxin (conjugate)
light: DIQMTQSPASQSASLGESVTITCLASQTIGTWLAWYQQKPGKSPQLLIYAATTLTDGVPSRFSGAGSGTKFSLKISSLQAEDFASYFCQEFFSTPFTFGSGTKLELKRADAAPTVSIFPPSSEQLTSGGASVVCFLNNFYPKDINVKWKIDGGERQNGVLNSWTDQDSKDSTYSMSSTLTLTKDEYERHNSYTCEATHKTSTSPIVKSFNRNEC
heavy: QVQLQQPGTELVRPGLSVKLSCKASGYTFTSYWMNWVKQRPGQGLEWIGMIHPSNDEKRINQKFKDKATLTVDKFSSTVYMQVSSPTSEDSAVYYCARGGGDYVGDYALDFWGQGTSVTVSSAKTTPPSVYPLAPGSAAQTNSMVTLGCLVKGYFPEPVTVTWNSGSLSSGVHTFPAVLQSDLYTLSSSVTVPSSTWPSETVTCNVAHPASSTKVDKKIVPRDCGCKPCICTVPEVSSVFIFPPKPKDVLTITLTPKVTCVVVDISKDDPEVQFSWFVDDVEVHTAQTQPREEQFNSTFRSVSELPIMHQDWLNGKEFKCRVNSAAFPAPIEKTISKTKGRPKAPQVYTIPPPKEQMAKDKVSLTCMITDFFPEDITVEWQWNGQPAENYKNTQPIMDTDGSYFIYSKLNVQKSNWEAGNTFTCSVLHEGLHNHHTEKSLSHSPGK
- Overall cell viability (KNS42 cells [1]): specific reduction in overall viability
- Overall cell viability (THP-1 cells [2]): specific reduction in overall viability
- Overall cell viability (U937 cells [3]): most sensitive cell line tested; also recorded: specific reduction in overall cell viability
- Overall cell viability [4]: remains unaffected
- Overall cell viability (HT1080 cells [5]): specific reduction in overall viability
- Affinity towards uPARAP following conjugation procedure [6]: retained affinity
- Cell cycle distribution (KNS42 cells [7]): shift in cell cycle distribution towards the Sub-G1 and G2/M phases
- Cell cycle distribution (THP-1 cells [8]): shift in cell cycle distribution towards the Sub-G1 and G2/M phases
- Cell cycle distribution (U937 cells [9]): shift in cell cycle distribution towards the Sub-G1 and G2/M phases
- Cell cycle distribution (HT1080 cells [10]): shift in cell cycle distribution towards the Sub-G1 and G2/M phases
- Cell viability / sensitivity of glioblastoma explant cells [11]: very strong and specific sensitivity; also recorded: high degree of specific sensitivity
- Tumour burden (U937 xenograft tumour [12]; i.v. tail vein, 5 mg/kg mAb component, 3 doses every 4 days, all 10 mice): complete abrogation of the tumour burden
- Permanent cure rate (U937 xenograft tumour [12]; i.v., 5 mg/kg mAb component, 3 doses every 4 days, N=10): 100%
- Adverse / detrimental effects on treated mice (U937 xenograft tumour [12]; regular inspection of the treated mice, antibody cross-reactive with murine uPARAP): without any evident adverse effects; also recorded: no signs of detrimental effects were seen
- Linker cleavage by cathepsin B (gel mobility) [13]: reverts ADC gel mobility back to that of unmodified targeting antibody
- Tumour growth (U937 xenograft tumour [14]; s.c. near the tumour, 3 mg/kg mAb component, 4 doses every 4 days): drastic decrease in tumour growth
- Permanent cure rate (U937 xenograft tumour [14]; s.c., 3 mg/kg mAb component, 4 doses every 4 days, N=10): 50%
- Mice free from tumour growth for a period of 90 days (U937 xenograft tumour [14]; [15]): 5 mice
- Mice with almost immediate relapse of tumour growth following treatment (U937 xenograft tumour [14]; [15]): 5 mice
